Assay results as given in patent US20150118233A1.
Numbering of substitutions follows the chain as printed.

B1: Nanobody 15H8 (VHH)
VHH: EVQLVESGGGLVQAGGSLRLSCAASGRSFSNYVLGWFRQAPGKEREFVAAISFRGDSAIGAPSVEGRFTISRDNAKNTGYLQMNSLVPDDTAVYYCGAGTPLNPGAYIYDWSYDYWGRGTQVTVSS
B2: RSV407 (NC41-15GS-NC41-15GS-NC41) (VHH)
chain: EVQLVESGGGLVQAGGSLSISCAASGGSLSNYVLGWFRQAPGKEREFVAAINWRGDITIGPPNVEGRFTISRDNAKNTGYLQMNSLAPDDTAVYYCGAGTPLNPGAYIYDWSYDYWGRGTQVTVSSGGGGSGGGGSGGGGSEVQLVESGGGLVQAGGSLSISCAASGGSLSNYVLGWFRQAPGKEREFVAAINWRGDITIGPPNVEGRFTISRDNAKNTGYLQMNSLAPDDTAVYYCGAGTPLNPGAYIYDWSYDYWGRGTQVTVSSGGGGSGGGGSGGGGSEVQLVESGGGLVQAGGSLSISCAASGGSLSNYVLGWFRQAPGKEREFVAAINWRGDITIGPPNVEGRFTISRDNAKNTGYLQMNSLAPDDTAVYYCGAGTPLNPGAYIYDWSYDYWGRGTQVTVSS
B3: RSV400 (7B2-15GS-7B2-15GS-7B2) (bispecific antibody)
chain: EVQLVESGGGLVQAGDSLRLSCAASGRTFSSYAMGWFRQAPGKEREFVAAISWSDGSTYYADSVKGRFTISRDNAKNTVYLQMNSLKPEDTAVYYCAADLTSTNPGSYIYIWAYDYWGQGTQVTVSSGGGGSGGGGSGGGGSEVQLVESGGGLVQAGDSLRLSCAASGRTFSSYAMGWFRQAPGKEREFVAAISWSDGSTYYADSVKGRFTISRDNAKNTVYLQMNSLKPEDTAVYYCAADLTSTNPGSYIYIWAYDYWGQGTQVTVSSGGGGSGGGGSGGGGSEVQLVESGGGLVQAGDSLRLSCAASGRTFSSYAMGWFRQAPGKEREFVAAISWSDGSTYYADSVKGRFTISRDNAKNTVYLQMNSLKPEDTAVYYCAADLTSTNPGSYIYIWAYDYWGQGTQVTVSS
B4: Nanobody NC41 (VHH)
VHH: EVQLVESGGGLVQAGGSLSISCAASGGSLSNYVLGWFRQAPGKEREFVAAINWRGDITIGPPNVEGRFTISRDNAKNTGYLQMNSLAPDDTAVYYCGAGTPLNPGAYIYDWSYDYWGRGTQVTVSS
B5: Nanobody 191E4 (VHH)
VHH: EVQLVESGGGLVQAGGSLRLSCAASGPTFSADTMGWFRQAPGKEREFVATIPWSGGIAYYSDSVKGRFTMSRDNAKNTVDLQMNSLKPEDTALYYCAGSSRIYIYSDSLSERSYDYWGQGTQVTVSS
B6: Synagis® Fab (Fab, part only; not given: Constant regions, biotin sites, V domains shown, not shown: another chain or arm of the molecule)
VH: QVTLRESGPALVKPTQTLTLTCTFSGFSLSTSGMSVGWIRQPPGKALEWLADIWWDDKKDYNPSLKSRLTISKDTSKNQVVLKVTNMDPADTATYYCARSMITNWYFDVWGAGTTVTVSS
VL: DIQMTQSPSTLSASVGDRVTITCKCQLSVGYMHWYQQKPGKAPKLLIYDTSKLASGVPSRFSGSGSGTEFTLTISSLQPDDFATYYCFQGSGYPFTFGGGTKLEIK
B7: Nanobody 191D3 (VHH)
VHH: EVQLVESGGGLVQAGGSLRLSCEASGRTYSRYGMGWFRQAPGKEREFVAAVSRLSGPRTVYADSVKGRFTISRDNAENTVYLQMNSLKPEDTAVYTCAAELTNRNSGAYYYAWAYDYWGQGTQVTVSS
B8: Nanobody 1E4 (VHH)
VHH: B7 VHH with Y29F, R31S, S106P, A112T
B9: RSV106 (7B2-15GS-7B2) (VHH)
chain: EVQLVESGGGLVQAGDSLRLSCAASGRTFSSYAMGWFRQAPGKEREFVAAISWSDGSTYYADSVKGRFTISRDNAKNTVYLQMNSLKPEDTAVYYCAADLTSTNPGSYIYIWAYDYWGQGTQVTVSSGGGGSGGGGSGGGGSEVQLVESGGGLVQAGDSLRLSCAASGRTFSSYAMGWFRQAPGKEREFVAAISWSDGSTYYADSVKGRFTISRDNAKNTVYLQMNSLKPEDTAVYYCAADLTSTNPGSYIYIWAYDYWGQGTQVTVSS
B10: RSV404 (15H8-15GS-15H8-15GS-15H8) (VHH)
chain: EVQLVESGGGLVQAGGSLRLSCAASGRSFSNYVLGWFRQAPGKEREFVAAISFRGDSAIGAPSVEGRFTISRDNAKNTGYLQMNSLVPDDTAVYYCGAGTPLNPGAYIYDWSYDYWGRGTQVTVSSGGGGSGGGGSGGGGSEVQLVESGGGLVQAGGSLRLSCAASGRSFSNYVLGWFRQAPGKEREFVAAISFRGDSAIGAPSVEGRFTISRDNAKNTGYLQMNSLVPDDTAVYYCGAGTPLNPGAYIYDWSYDYWGRGTQVTVSSGGGGSGGGGSGGGGSEVQLVESGGGLVQAGGSLRLSCAASGRSFSNYVLGWFRQAPGKEREFVAAISFRGDSAIGAPSVEGRFTISRDNAKNTGYLQMNSLVPDDTAVYYCGAGTPLNPGAYIYDWSYDYWGRGTQVTVSS
B11: Nanobody 7B2 (VHH)
VHH: EVQLVESGGGLVQAGDSLRLSCAASGRTFSSYAMGWFRQAPGKEREFVAAISWSDGSTYYADSVKGRFTISRDNAKNTVYLQMNSLKPEDTAVYYCAADLTSTNPGSYIYIWAYDYWGQGTQVTVSS
B12: Nanobody 15B3 (VHH)
VHH: EVQLVESGGGLVQPGGSLRLSCAASGLTLDYYALGWFRQAPGKEREGVSCISSSDHSTTYTDSVKGRFTISWDNAKNTLYLQMNSLKPGDTAVYYCAADPALGCYSGSYYPRYDYWGQGTQVTVSS
B13: Nanobody NC23 (VHH)
VHH: EVQLVESGGGLVQPGGSLRLSCAASGRTFSSIAMGWFRQAPGKEREFVAAISWSRGRTFYADSVKGRFIISRDDAANTAYLQMNSLKPEDTAVYYCAVDTASWNSGSFIYDWAYDHWGQGTQVTVSS
B14: RSV116 (NC41-15GS-NC41) (bispecific antibody)
chain: EVQLVESGGGLVQAGGSLSISCAASGGSLSNYVLGWFRQAPGKEREFVAAINWRGDITIGPPNVEGRFTISRDNAKNTGYLQMNSLAPDDTAVYYCGAGTPLNPGAYIYDWSYDYWGRGTQVTVSSGGGGSGGGGSGGGGSEVQLVESGGGLVQAGGSLSISCAASGGSLSNYVLGWFRQAPGKEREFVAAINWRGDITIGPPNVEGRFTISRDNAKNTGYLQMNSLAPDDTAVYYCGAGTPLNPGAYIYDWSYDYWGRGTQVTVSS

Key:
[1] = substrate: F protein of hRSV strain Long (hRSV strain Long); experiment: binding ELISA on coated hRSV (Hytest), anti-VHH detection
[2] = biological target: hRSV FTM- NN protein (membrane anchorless form of the Long fusion protein, 70 kDa) (hRSV strain Long); experiment: binding ELISA on immobilised FTM- protein; detection with rabbit anti-VHH and HRP goat anti-rabbit
[3] = biological target: hRSV FTM- NN protein (membrane anchorless form of the Long fusion protein, 70 kDa) (hRSV strain Long); experiment: competition ELISA on coated FTM- NN; competitor biotinylated Synagis Fab
[4] = biological target: hRSV FTM- NN protein (membrane anchorless form of the Long fusion protein, 70 kDa) (hRSV strain Long); experiment: SPR (Biacore T100), FTM- NN amine-coupled, 1:1 Langmuir fit
[5] = substrate: F protein of hRSV strain Long (hRSV strain Long); experiment: cell-based or functional assay
[6] = substrate: F protein of hRSV strain B-1 (hRSV strain B-1); experiment: cell-based or functional assay
[7] = substrate: F protein of Long escape mutant R7C2/1 (K272E in antigenic site II) (hRSV strain Long escape mutant); experiment: ELISA on extract of HEp-2 cells infected with R7C2/1
[8] = biological target: hRSV FTM- NN protein (membrane anchorless form of the Long fusion protein, 70 kDa) (hRSV strain Long); experiment: SPR (Biacore) on Ftm-NN protein; Table B-5 run (selected NC41 variants), separate from Table B-1
[9] = biological target: hRSV FTM- NN protein (membrane anchorless form of the Long fusion protein, 70 kDa) (hRSV strain Long); experiment: SPR (Biacore) on Ftm-NN protein
[10] = biological target: hRSV FTM- NN protein (membrane anchorless form of the Long fusion protein, 70 kDa) (hRSV strain Long); experiment: Alphascreen competition: FTM- NN (0.3 nM) bridged by biotinylated Synagis Fab and 101F Fab acceptor beads

Row | Binder | EC50 [1] [nM] | EC50 (read off the curve) [2] [nM] | EC50 [3] [nM] | Kd [4] [nM] | koff [4] [s⁻¹] | kon [4] [M⁻¹ s⁻¹] | RSV neutralization IC50 [5] [nM] | also measured
1 | B1 | 0.83 | 1 | 39 | 16 | 0.021 | 1.2e+06 | 200 | –
2 | B2 | – | 0.2 | – | – | – | – | – | Neutralization IC50 [5]: 0.0941 nM; Neutralization, ratio to Synagis [5]: 59 fold; Neutralization IC50 [6]: 0.66 nM; Neutralization, ratio to Synagis [6]: 3 fold
3 | B3 | – | 0.3 | – | – | – | – | – | binding (% reactivity relative to Long wild type) [7]: 13%
4 | B4 | 0.41 | 1 | 32 | 8.1 | 0.0067 | 820000 | 58 | Kd [8]: 4 nM; koff [9]: 0.0067 s⁻¹; kon [9]: 1.7e+06 M⁻¹ s⁻¹; Neutralization IC50 (first assay) [5]: 202 nM; Neutralization IC50 (second assay) [5]: 122 nM
5 | B5 | 0.083 | – | – | 0.27 | 0.00015 | 570000 | – | binding (% reactivity relative to Long wild type) [7]: > 75%
6 | B6 | – | – | – | – | – | – | – | IC50 [10]: 0.597 nM
7 | B7 | 0.15 | – | 5.9 | 1.9 | 0.0028 | 1.5e+06 | 253 | –
8 | B8 | 0.066 | – | 4.5 | 1.6 | 0.0013 | 800000 | 380 | –
9 | B9 | – | – | – | – | – | – | – | binding (% reactivity relative to Long wild type) [7]: 4.4%
10 | B10 | – | 0.3 | – | – | – | – | – | –
11 | B11 | 0.09 | 0.3 | 1.9 | 1.1 | 0.00065 | 570000 | 91 | –
12 | B12 | 0.058 | – | – | 0.67 | 0.00027 | 410000 | – | binding (% reactivity relative to Long wild type) [7]: > 75%
13 | B13 | 0.1 | – | 2.3 | 0.92 | 0.00074 | 800000 | 144 | –
14 | B14 | – | 0.3 | – | – | – | – | – | –
